± gives the uncertainty stated by the source.
B1: Unconventional myosin-Ie, residues 1051 to 1108; numbered along this chain, Q12965 (parent)
chain: PQVPQCKALYAYDAQDTDELSFNANDIIDIIKEDPSGWWTGRLRGKQGLFPNNYVTKI

Variants of: B1
Assay: abundance fitness (aPCA) (normalised: wild type 0, dead -1); higher = more abundant; growth selection in yeast, the domain comes from the species named
Conditions: Homo sapiens

Abundance fitness, by site and new letter:
P51: Q -0.438 ± 0.14; Y -0.425 ± 0.48; A -0.341 ± 0.05; S -0.287 ± 0.075; C -0.316 ± 0.047; E -0.674 ± 0.072; M -0.484 ± 0.14; V -0.94 ± 0.12; F -0.302 ± 0.25; W -0.143 ± 0.04; K -0.18 ± 0.094; L -0.198 ± 0.057; R -0.026 ± 0.036; G -0.771 ± 0.066; H -0.264 ± 0.15; D -0.114 ± 0.066
V55: I -0.27 ± 0.15; C -0.197 ± 0.063; E -0.945 ± 0.13; G -0.94 ± 0.11; T -0.111 ± 0.052; S -0.732 ± 0.13; N -0.632 ± 0.44; Q -1.02 ± 0.12; D -0.777 ± 0.23; A -0.387 ± 0.069; M -0.534 ± 0.086; W -0.645 ± 0.066; P -0.747 ± 0.28
K46: Y -0.351 ± 0.19; W -0.569 ± 0.17; V -0.051 ± 0.063
K57: L -0.442 ± 0.098; D -0.295 ± 0.1; M -0.34 ± 0.088; E -0.266 ± 0.068; A -0.337 ± 0.05; G -0.391 ± 0.047
T56: C -0.074 ± 0.078; E 0.033 ± 0.038; G -0.255 ± 0.044; P -0.534 ± 0.081; Y -0.197 ± 0.34; S -0.042 ± 0.047; K -0.165 ± 0.088; W -0.122 ± 0.076; F -0.023 ± 0.062; R -0.097 ± 0.046; M 0.023 ± 0.058; H 0.044 ± 0.12; I -0.261 ± 0.13; D -0.034 ± 0.039; N -0.078 ± 0.05; V -0.074 ± 0.034; A -0.075 ± 0.041
Q47: I -0.216 ± 0.12; Y 0.248 ± 0.15; M -0.169 ± 0.11; D -0.417 ± 0.16; C -0.236 ± 0.1; E -0.066 ± 0.046; T 0.005 ± 0.087; P -0.32 ± 0.1; V 0.041 ± 0.065; S -0.16 ± 0.076; G -0.451 ± 0.042; F -0.167 ± 0.095; K 0.007 ± 0.1; L -0.194 ± 0.066; R -0.099 ± 0.055; W -0.111 ± 0.093; N -0.507 ± 0.24; H -0.149 ± 0.06; A -0.222 ± 0.074
N53: K -0.066 ± 0.089; S -0.262 ± 0.052; H -0.012 ± 0.078; D 0.016 ± 0.052; F 0.071 ± 0.1; C -0.021 ± 0.054; A -0.147 ± 0.056; W -0.151 ± 0.058; M 0.075 ± 0.072; G -0.027 ± 0.043; L -0.188 ± 0.054; V -0.176 ± 0.063; Y -0.22 ± 0.1; P -0.516 ± 0.12; T -0.275 ± 0.097; E -0.078 ± 0.066; Q -0.07 ± 0.088
F50: E -0.911 ± 0.12; T -1.08 ± 0.18; M -0.31 ± 0.04; R -0.968 ± 0.12; G -0.826 ± 0.088; K -1.07 ± 0.2; C -0.94 ± 0.42; D -0.839 ± 0.26; V -0.208 ± 0.049; P -0.896 ± 0.33; Y -0.831 ± 0.28; I 0.069 ± 0.076; L -0.19 ± 0.058; A -0.841 ± 0.11; W -0.944 ± 0.14
Y54: D -0.949 ± 0.06; C -0.087 ± 0.064; F -0.243 ± 0.096; G -0.713 ± 0.089; K -0.158 ± 0.049; L -0.04 ± 0.056; P -0.814 ± 0.23; V -0.145 ± 0.047; N -0.657 ± 0.12; E -0.97 ± 0.23; Q -0.43 ± 0.088; I -0.296 ± 0.12; A -0.055 ± 0.032; H 0.038 ± 0.07; M -0.16 ± 0.085
L49: A -0.236 ± 0.065; R 0.09 ± 0.05; V -0.015 ± 0.056; G -0.16 ± 0.046; D -0.319 ± 0.094; I -0.219 ± 0.077; H -0.317 ± 0.12; P -0.656 ± 0.091; E -0.242 ± 0.057; C -0.025 ± 0.067; Q -0.151 ± 0.075; K 0.036 ± 0.066; N -0.428 ± 0.11; T -0.288 ± 0.078; W -0.157 ± 0.062
G48: F -0.598 ± 0.46; C -0.477 ± 0.2; N -0.626 ± 0.17; R -0.646 ± 0.081; L -0.399 ± 0.25; W -0.609 ± 0.49; D -0.885 ± 0.27; M -0.579 ± 0.39; A -0.171 ± 0.093; K -0.718 ± 0.16; V -0.756 ± 0.22; Q -0.826 ± 0.16; T -0.91 ± 0.082
N52: Y -0.209 ± 0.11; A 0.03 ± 0.049; S 0.024 ± 0.048; R -0.114 ± 0.06; M -0.231 ± 0.055; I -0.123 ± 0.093; W -0.053 ± 0.041; T -0.087 ± 0.042; E 0.019 ± 0.062; Q -0.197 ± 0.096; L -0.027 ± 0.048; G 0.02 ± 0.032; C -0.515 ± 0.23; V -0.068 ± 0.047; F 0.002 ± 0.031; H -0.087 ± 0.1; D -0.195 ± 0.08; K -0.284 ± 0.14

From the Human Domainome abundance scans (Beltran et al. 2025)
